Target: Crotalus durissus terrificus venom
Experiment: ELISA on C.d.t. venom (5 µg/ml coat)

preimmune IgY (chicken egg yolk) (antibody)
absorbance at dilution 1:5: < 0 absorbance | absorbance at dilution 1:25: 0 absorbance | absorbance at dilution 1:125: 0.003 absorbance | absorbance at dilution 1:625: 0 absorbance | absorbance at dilution 1:3125: 0.002 absorbance | absorbance, undiluted: 0.003 absorbance

Source: patent US20050238665A1
